Here are results for 47 sequences from the NTF2 design screens of Basanta et al. (2020).

A short description of this data set: protease stability score; higher = more stable; yeast display proteolysis, trypsin and chymotrypsin.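 Note: relative to predicted unfolded state with 0 unfolded-like and 1 meaning tenfold more protease.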
For “DEEREKSELAIKIMKHVWETGDETLKSELFDPNARIHIDGKEIVGREEIEDQLRHIRMHITMFDINSTKFVDGRLEVYLNRRVRLFFDGREIEEEQHIHVVLLKINGRWQLQELEVT”, the protease stability score was 1.36.
For “SELHEEVRHIAEQWVKSWITGDEHLLQKLADPHVRFKIGDKSNHGRENVIKEIRRLEEEHGAEERIIITHVRVVGDKYELHGTYELRIGDKHETRHLHIEIWVVNGVVKEIDIQID”, the protease stability score worked out at 1.07.
Next, “SEHKEEIIQLAEEIFRKIVTGDWERFWELADPHVRFDVGDKTRHGREKVIEYINRFMKELRFERFHIDDIRVIDGVVVIHTKLRFRVGDFQLHHHTRHEIMMVDGRIQFLRIEWE”: 0.096; “SEEEEILRIALEIFIHLWQTGDEDMLKHYADPEVRVHFDGRDYHGMNDLQFFVHELRKRYPGIRLHIEHVEIEVYNGRVFIIIHQRLDFNGQVITEEVRLIVIKINGRWDIHSVKYHSH”: 0.756.
Next, “HEDQERLKRFLEFYVHLINTGDEDRIRDLIDPHARVDIDGRIYHGREMYTQAYRDLGIDYLEIKRWEIQGDKVHLDTRVHIDGVERQTHLIIMKFNGRWIVHTMEVQ”: 1.56.
Next, “DEEEKLLEQLARLILHNLLTGDWKSHMNNADPDVKVTVNGVLVHGREDMSHLYRELLERIPNIQIRVDRVDIQGDKVHARLWVEFDGKERQSELHVRIVNGRIKEETYHEK”: 0.937; “DEEHEQLERLARDYMHSTETGDEESIRRFFDPHTRYDIDGKESHGWEMIKHWMEEWRIDSVTIHSIHRINGVAHIDVTVHGEIGDKQTTFRVIIDLVIVNGKVHEIRIIFE”: -0.086.
For “DESHEHIRFWAEIYIRIFETGDWDEMSRLLDPHYRLIQGDKHIVGRERALDHIDKEIKELRIHHIHIKDVKTQGDYVRIDGHVNYNVGDKILRFDFHIKLLVVDGKIKHSEERVR”, the protease stability score stood at 1.28.
The value for “DEHTEEAKHWVTRFIHALSTGDFEQIERLADPHVRVEIGDKEIHGMEFLSEHVLKFKGIRTNIRHIEIHYYDGRVNVEVDIDIHIGDKTVNSELHIHIEKVDGRWVITSLHIRTR” was 1.46; that for “DEEKEEARRVLEIFIRSTRTGNFKENTEQMDPNVRIDINGVELHGREDAIRLAVEARIHRVEIEHVTTIGDKVEVHGHVDGTFNGQRTRTRLYVVIEKVDGRWLISEYRYH” was 1.29; that for “SEEEKSSHLSIRLWLEMLITGDEDHLEHLADPNVRIEFEGREFHGRERAMHWMRHVSRHMRIEHIQIRRIHYFDGRLQLEGRIDGNINGRNHRFDSELEVTKIDGRWLLTSERIE” was 1.24.
The value for “TEEEKKSEEFLKKLTHAWRTGNEDTLTHMMDPHVRIDFNGQELIGMEHARRLISELRVEDLEIESITHQGNKVHIRGRDLVLFNGQQRTIDTIFILKKVDGRWIIESIEFR” was 1.9; that for “SEEDKESEEAFKIAKELLETGDEDLHKHLFDPNARLVVGDKHHHGRELLVKFWSDFGIDHIEIHDIKLVNGRLDTDTTVRFNGRTLKMRIIIIKVNGKWEIKSMTVH” was 0.667.
The sequence “EEDRKHAEHVFELLMEVLLTGDWKMSRHLFDPNARIEIDGVESHGWEFIYRLLRFIWEHLGIKVRDMKIRRFDVINGVAHFDGELRLHVDGVEIVLEIRLNIFVINGRLKEVHLKRT” displayed a protease stability score of 1.42.
Next, “DESHESLHKMLKVRYEALHTGDESMLNELLDPDARFNVDGRIHHGRERAVRYNERIPNLTTRDLKVHDWKVIGDKIHIDGRLEGHWNGKHHIINEEIIVQKINGKWLIEEVIVR”: 0.109; “DEDKERADEMLEYILHYILTGDEDSLRELFDPHARLHVDGRDIIGWDKFNRKLIEIRQRTRIQSEHIHIQGDKLHVDGTLRINIHYNGQHLHIDLRSIHITVKINGRWVFKFMEIR”: 0.829.
“DERKTISHMIEEIWHRIIRTGDEEAFIKYFDPHARIHVDGKEIHGREKVLEFLIEIFRHLRVEDYTVHSYNTQGDKIHIDTRMDGEVDGRREVNQTRIIATKINGQWILTEVHLS” had a protease stability score of 0.36.
The value for “SEINERTERLMKWLLHAILTGDEDLLSTLADPNVRVIVGDKSVIGMESWYRLFEEELRHLGIKHMQLDPRHVDTQGDKARVETRLRVWVDGVELTHETRLHLDVVNGRITKISIRIH” was 1.16.
“DEVEHHMKTITDRLLTAIETGDEDEWERLLDPRVRVDIGDKHIHGREDYNRKFRERGFEIKRWEMKDMDVINGQIRIDGHRKIHIDGVTTRNTVHIIIVVYNGRVKHFEHRHE” displayed a protease stability score of 0.578.
In the case of “REEEKDEERMVHELMEWHRTGDEKTLNELLDPNARFIINGKHIHGREVFNEEVKRLGFRIEEYHLRRVRIYDGRIEFETEIDGEVNGRRLHIETRFHAIKINGQWRLKHIEFH”, the protease stability score is 2.5.
Next, “SKEETWVKEAYELMTRTIRTGDERLMHELLDPHVRTVINGQESHGREVVLRFLEHIRYEEVTPTHIRIIGDWIDVDIRIHGHFDGRRYELRSTLFMRKVDGKWDLTEIRII”: 0.709; “DELEEEVLKALDEWLRSLATGDFDTLTHLMDPNAKTHIGDKHYHGRELLEIWIKRVDHVHRLHFRLRRYRVVGNKVELDGELEIDGEINGRHTNHSEDIRIVLHKIDGRWVVESMIIR”: 2.53; “DEDDRDMREFWELLFHYLLTGDWESLEKLIDPNARIRVNGKELHGMHYHIRQLTHEVKRFDHIDQRIHHSSVINGKIHLDIHLIINVDGQSFVIHIKMHVDKVDGRWLTRSVHIH”: 1.09.
Next, “DESERIILHIANEFLHLYATGDEDRLRELADPHVRLDVDGQDVHGRELTQKWWKRFVEEIRIRDLHLKDYYIIGEKYHIEGHTRLHIGDKHVETEIRIHIVVVNGKIKSESFHLR”: 0.541; “KEKEEIARMMLKELIKTIRTGDPEEWHKLFDPHVLIVIDGREIHGMEEHTRLLRELGIDRIELHTQHERHVSVQGDKVHLDIDVDGMFDGQKRRFHMHIDALKVNGQWVIQYIEIR”: 1.96; “DHETRWLRHVLKIWDHMVETGDWEKSERLADPNTKLVIDGVDLHGRRDYNRHMRELRVHHTEINDVELTNIGDKVHLYREVDYDITVDGRRIITHIELFLIIRKVDGRWILEEQEVNFR”: 0.236.
The value for “SEDKDNAQDLLHHVVKAWNTGDEDLTRKLFDPHVRLDINGVEIHGWRDLLRVLRELRLRVEMRVHDADFINGVIHLYTTVHSHIHFNGVDFHFHHETRMIILKINGRWLVHSITYL” was 0.675; that for “DEDEEQARRLAELIRHLLITGDEYVNRKMADPRVQFILHQGDKNYLHHGRDEVVRRLRELWEEWGFDQIHVNLDDVKIVNGRVIIHTRLQVGDKHMELRFIIEKIDGKWLVTHEQIHLH” was 1.62.
Turning to “DEDTTMLEEMARLLVEMWLTGDEEKIYKLADPDVRLNVNGKDQIGREESEKLRRELLETLGIKHFEVEDLKIRLIDGRVNVHIYGIVKFNGVNVKMILDHHSRKVNGRWRIEHLRIIHI”, the protease stability score came to 1.32.
Next, “SEDEKFWEDISKIVLDLLRTGDWELSERYADPNVKVHLVIDGQELDLHGREHVVNLVRKLGADHVETEDHKFHYQGNKIRINIHGHLNINGKVQHVEFTEIWVKVDGRWYSQHHEIVFR”: 1.55; “DEEKEDIERYNRLYFNASTTGDEDTLKRLADPHVRIHVGDKDQVGMEHLSTRLLELRIEVEFDHRHIEVQGDKVTVDGTLTLHIEIGEKRYERRVDLILHWHKIDGRWLIEQVDML”: 1.27; “DEEEQHLKKFLKYLKKAIETGDWHKITEMADPNTRLNINGVDNIGWEIISHILMHELEELGLEQIHVHFEHERIQGDKVKLEIHLHIGDKVEHAEMYILKFDGRWRIKRLVRG”: 1.93.
“EELERDSKEVAERLLWDTLTGDEDLLLHLMDPHVRHIVNGVKLHGREALERAIEEHLSHLGIDHIRIRHIDFRIINGKMDVHIHGESIYNGRVVHMIIIFISTKVNGKWVLEELSIEIR” had a protease stability score of 1.85.
The value for “DEEEERMQEKLHRYLHDLVTGDEEEFHKYADPHVKTRVGDKILHGREKAREFWHEIRIKDIKLDHKDIQGDFVRLHVRVHGRINGQDIDFRVEIFFRKINGRWIIESQEIN” was 0.816; that for “DEEHRHAHWLLNVLTKAMITGDESLMEHLLDPNARLIQGEFELVGRERIIDWFHHIRTHEVRIHVEHFDVVNGKAIIFGHVTVDGTVNGQRREFRFDQTYFSSKIDGKWVIESLEME” was 1.3; that for “DKEEEHMREMVRLYQHIRLTGNEEVIRNLADPTMRFDLDFEEKRVTAIGREQYLRVTDKLKKDLGLENIEVRVKEMEAFDGVIHINGHERFNGRSYDTHIWLVIVNGRWEFIRIEIR” was 0.116.
The value for “SEEEHHVVRMMELLIDLLMTGDEEVFDSLVDPDVKSNINGVHSVGMESINEIFRRYVDFFKNVKVDVHLRDREAQGDKHITYGVRIERFDGKQFTIDTRLELKVVNGRIKDVKVDIK” was 1.46; that for “SEEHEDIKKFLDDLHSAWNTGDWKALEHMLDPHVKFEINGRNFVGREEVRKLLEQIRLHPRSEIKDVRMQGEFVIVDGRVKIKINVNGREHHEVQEIILYLRKVNGKWYIEEIEIR” was 1.54; that for “SEEEELFRKLVNLFLRDVLTGDEESLIELMDPDVRVDINGRKNVGWEEVANTWKQMRIRDFEYREVEYYNGQARIHGVRDGNINGVDERTEIEISMSIVDGRLKHVRVHVR” was 2.09.
The value for “EDEEQHTEELAHIFTEDYFTGDESSLERYLDPHVRLRIEYGDWEFSVHGRERAVDKIHWTMKQMGVKHVYLRHIRVQGDKVELNLELRVGDKVREQRIEIKVVNGRIKLVNIVIH” was 2.15; that for “DRLEELLRHVSSLFLHSVETGDFDILQKLADPHVRMEVDGKELHGREHMVQRILDEYHKFGFTQIDSRLEDVRVYGDKVEVDLEHHFDGKTYKYEIILRKVNGRWTLESVIVR” was 1.22; that for “EEEEEDARRASKIFYHNFLTGDEQNLLKLADPHVLLIINGVHFHGWERYKKWEEERRDKFKNVRLELEDMDVEVIGDKIESIIHLRVDIGDKRIHMEVIFIIEKVDGRWKLRSQEVRIE” was 1.03.
On to “EEEHELTELLSRLWVHAIRTGDEDTLKELMDPNTRFEINGKEHIGRERLTDAFRELRVHRLHIEHIEIQGDKVLMETRSDIEINGVRRETETRIILHVVNGRIKEVRVHIK”, for which the protease stability score worked out at 1.84.
The value for “DEEERSAKDFSERVFEEDRTGDEERWERLADPNVRLDINGKEHHGRELVMKYRLEFLRRVKNMVIRLEHIEIRVFDGKLTLHIHGVINVDGKTIHFDLIIIVRKVDGRWRIDEVIIEIK” was 1.4; that for “DEDEKYEEHYVEMFLRWLQTGDEDQIERNADPNVRLDVNGRDIIGWENIIEHIRQIKNLRIQIRRVRVVDGRSIVDIRVEVNGKRHEVNLIVIIINGKLKEVKFEFR” was 2.71; that for “HEEERILRFYLEWIEHHLRTGDERFIEENADPNVKIRVNGKDIHGRERYNEVWDKVLRDFGVDHTNDKDTTAYDGRIEVHEEWRFNGRRVDVETIIIFINGVIKHIEIRIRIE” was 2.12.
Next, “DDIEEILRRMTELFWRALATGDEREERELADPHVRLDVNGRTYHGMEKVREWYRRIDHHHFETWHYHHIEFQGEKVYIEGRMRVNLDINGQELRIDTFTIILMLVINGRIHRFQYQVH”: 0.467.
